Data from PMC5187519.

How the values were obtained:
30S–IF3DL complex [1] = target: 30S–IF3DL complex (UniProt P0A707); test: stopped-flow fluorescence; pre-steady state; preformed 30S–IF3DL (0.1 µM) mixed with a 10-fold molar excess of IF1 (1 µM); intramolecular FRET of IF3DL; TAKM10 buffer, 25 °C; single exponential fit; apparent rate constant
30S–IF3DL complex [2] = target: 30S–IF3DL complex (UniProt P0A707); test: other fluorescence titration; equilibrium; preformed 30S–IF3DL (0.5 µM) titrated with IF1 (0.1-2 µM); intramolecular FRET of IF3DL; HAKM10 buffer; one-site binding fit
[3] = target: 30S subunit (minor ribosomal subunit); test: stopped-flow fluorescence; pre-steady state; 30S subunits (0.1 µM) mixed with equimolar IF3DL; intramolecular FRET of IF3DL; TAKM10 buffer, 25 °C; fit with two exponential terms; apparent rate constants

kapp (IF1-dependent FRET change at 1 µM IF1; a step after the initial binding) (30S–IF3DL complex [1]) [s⁻¹]	Kd (30S–IF3DL complex [2]) [nM]	kapp1 (initial bimolecular encounter, 0.1 µM each) [3] [s⁻¹]	Binder
0.26	100	–	Initiation factor IF1 (natural protein) MAKEDNIEMQGTVLETLPNTMFRVELENGHVVTAHISGKMRKNYIRILTGDKVTVELTPYDLSKGRIVFRSR
–	–	16	IF3DL (double-labeled IF3; IF3 E166C with Atto-540Q at the CTD and Atto-488 at the NTD) (natural protein, Atto-540Q maleimide on the recombinant cysteine 166 (E166C, CTD); Atto-488 maleimide on the natural cysteine 65 (NTD)) MKGGKRVQTARPNRINGEIRAQEVRLTGLEGEQLGIVSLREALEKAEEAGVDLVEISPNAEPPVCRIMDYGKFLYEKSKSSKEQKKKQKVIQVKEIKFRPGTDEGDYQVKLRSLIRFLEEGDKAKITLRFRGREMAHQQIGMEVLNRVKDDLQELAVVESFPTKICGRQMIMVLAPKKKQ
